{"source": "paper PMC11008601", "about": "“Motor properties of Myosin 5c are modulated by tropomyosin isoforms and inhibited by pentabromopseudilin” (Frontiers in Physiology, 2024)", "molecules": {"B1": {"name": "essential light chain Myl6 (natural protein, human (from the printed UniProt entry), UniProt P60660 1-151, looked up)", "chain": "MCDFTEDQTAEFKEAFQLFDRTGDGKILYSQCGDVMRALGQNPTNAEVLKVLGNPKSDEMNVKVLDFEHFLPMLQTVAKNKDQGTYEDYVEGLRVFDKEGNGTVMGAEIRHVLVTLGEKMTEEEVEMLVAGHEDSNGCINYEAFVRHILSG", "notes": "myosin essential light chain Myl6, Uniprot-ID P60660 (a human entry); the vector was prepared as in Reindl et al., 2022; also called ELC; source: baculovirus/Sf9, co-produced with Myo5c–HMM, CaM and Myl12b"}, "B2": {"name": "regulatory light chain Myl12b (natural protein, human (from the printed UniProt entry), UniProt O14950 1-172, looked up)", "chain": "MSSKKAKTKTTKKRPQRATSNVFAMFDQSQIQEFKEAFNMIDQNRDGFIDKEDLHDMLASLGKNPTDAYLDAMMNEAPGPINFTMFLTMFGEKLNGTDPEDVIRNAFACFDEEATGTIQEDYLRELLTTMGDRFTDEEVDELYREAPIDKKGNFNYIEFTRILKHGAKDKDD", "notes": "myosin regulatory light chain 12B (Myl12b), Uniprot-ID O14950 (a human entry); the vector was prepared as in Reindl et al., 2022; also called RLC; source: baculovirus/Sf9, co-produced with Myo5c–HMM, CaM and Myl6"}}, "key": {"Myo5c–HMM": {"target": "T1, Myo5c–HMM (Homo sapiens, UniProt Q9NQX4)", "T1 construct": "heavy meromyosin fragment, residues 1-1108 (motor domain, six IQ motifs, coiled coil), C-terminal Flag tag, co-produced with light chains in baculovirus/Sf9, anti-FLAG purification; dimer; six CaM per heavy chain when co-produced with CaM only; with Calmodulin-1", "T1 sequence (Q9NQX4 1-1108)": "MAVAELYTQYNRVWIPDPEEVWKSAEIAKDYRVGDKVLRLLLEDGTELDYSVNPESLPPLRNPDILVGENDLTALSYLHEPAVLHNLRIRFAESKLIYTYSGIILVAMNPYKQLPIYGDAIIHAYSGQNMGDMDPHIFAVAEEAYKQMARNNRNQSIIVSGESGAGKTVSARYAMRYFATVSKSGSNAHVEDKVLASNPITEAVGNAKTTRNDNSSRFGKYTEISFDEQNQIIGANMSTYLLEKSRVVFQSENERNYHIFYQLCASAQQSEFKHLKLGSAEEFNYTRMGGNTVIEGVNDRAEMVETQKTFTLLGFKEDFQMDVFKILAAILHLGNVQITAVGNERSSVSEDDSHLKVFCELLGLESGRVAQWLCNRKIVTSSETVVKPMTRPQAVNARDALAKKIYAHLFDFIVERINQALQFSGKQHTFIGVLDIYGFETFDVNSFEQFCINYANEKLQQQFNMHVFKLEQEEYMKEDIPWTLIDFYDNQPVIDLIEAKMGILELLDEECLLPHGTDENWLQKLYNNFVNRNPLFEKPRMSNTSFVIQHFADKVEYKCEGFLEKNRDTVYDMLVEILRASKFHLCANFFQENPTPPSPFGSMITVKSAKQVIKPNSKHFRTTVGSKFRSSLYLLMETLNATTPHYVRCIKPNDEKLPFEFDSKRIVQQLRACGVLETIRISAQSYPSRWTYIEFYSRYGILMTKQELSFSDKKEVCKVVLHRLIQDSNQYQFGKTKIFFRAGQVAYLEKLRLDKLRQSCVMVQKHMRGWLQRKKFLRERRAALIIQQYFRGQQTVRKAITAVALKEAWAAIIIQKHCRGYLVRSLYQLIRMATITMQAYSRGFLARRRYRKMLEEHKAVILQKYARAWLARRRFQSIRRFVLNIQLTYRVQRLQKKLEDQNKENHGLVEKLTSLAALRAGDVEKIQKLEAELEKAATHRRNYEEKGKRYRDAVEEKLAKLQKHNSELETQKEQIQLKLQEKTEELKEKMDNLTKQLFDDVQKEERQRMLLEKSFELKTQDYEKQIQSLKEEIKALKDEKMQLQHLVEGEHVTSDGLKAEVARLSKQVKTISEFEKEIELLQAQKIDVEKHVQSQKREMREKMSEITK", "test": "NADH-coupled steady-state actin-activated ATPase assay, dose-response fit", "type": "biochemical"}, "[1]": {"target": "F–actin (bare actin filaments) (not stated (human β–actin or chicken α–skeletal actin prepared)) (UniProt P60709)"}, "[2]": {"target": "cofilaments of actin and Tpm1.6 (not stated (human β–actin or chicken α–skeletal actin prepared) | human) (UniProt P60709)"}, "[3]": {"target": "cofilaments of actin and Tpm3.1 (not stated (human β–actin or chicken α–skeletal actin prepared) | human) (UniProt P60709)"}, "[4]": {"target": "cofilaments of actin and Tpm1.8 (not stated (human β–actin or chicken α–skeletal actin prepared) | human) (UniProt P60709)"}, "[5]": {"target": "Myo5c–HMM heavy chain (human Myo5c, amino acids 1–1108, C-terminal Flag) (human) (UniProt Q9NQX4)", "sequence (Q9NQX4 1-1108)": "as above", "test": "co-purification on anti-FLAG affinity resin, Coomassie gel and immunoblot; Myo5c–HMM-Flag co-produced with CaM alone in Sf9; lysate on anti-FLAG-M2 resin 2 h at 4°C, washed with 500 mM NaCl and 2 mM ATP, then 100 mM NaCl, eluted with FLAG peptide; blot with anti-Flag and anti-CaM; ratio from the gel"}, "[6]": {"target": "Myo5c–HMM heavy chain (human Myo5c, amino acids 1–1108, C-terminal Flag) (human) (UniProt Q9NQX4)", "test": "co-purification on anti-FLAG affinity resin, Coomassie gel and immunoblot; Myo5c–HMM-Flag co-produced with CaM, RLC (Myl12b) and ELC (Myl6) in Sf9; lysate on anti-FLAG-M2 resin 2 h at 4°C, washed with 500 mM NaCl and 2 mM ATP, then 100 mM NaCl, eluted with FLAG peptide; blot with anti-Myl12b, anti-CaM, anti-Myl6; ratios from the Coomassie-stained gel"}, "[7]": {"target": "T2, Myo5c–HMM heavy chain (human Myo5c, amino acids 1–1108, C-terminal Flag) (human, UniProt Q9NQX4 1-1108)", "T2 construct": "human myosin 5c (Myo5c) heavy chain, amino acids 1-1108 (motor domain, neck with IQ motifs, part of the coiled coil), Uniprot-ID Q9NQX4; Cloned in pFastBac Dual under the polyhedrin promotor; also called heavy meromyosin fragment of the Myo5c heavy chain; source: baculovirus/Sf9, co-produced with light chains; not shown: Flag, C-terminal, kept", "T2 sequence (Q9NQX4 1-1108)": "as above", "test": "co-purification on anti-FLAG affinity resin, Coomassie gel and immunoblot; Myo5c–HMM-Flag co-produced with CaM, RLC (Myl12b) and ELC (Myl6) in Sf9; lysate on anti-FLAG-M2 resin 2 h at 4°C, washed with 500 mM NaCl and 2 mM ATP, then 100 mM NaCl, eluted with FLAG peptide; blot with anti-Myl12b, anti-CaM, anti-Myl6; ratios from the Coomassie-stained gel", "conditions": "partners not purified"}}, "data": [{"molecule": "Oc1c(Br)cc(Br)cc1-c1[nH]c(Br)c(Br)c1Br", "note": "[PBP, 2,3,4–tribromo–5–(3,5–dibromo–2–hydroxyphenyl)–1H–pyrrole]", "values": [{"measurement": "IC50", "setting": "Myo5c–HMM", "result": "280 ± 60", "unit": "nM"}]}, {"molecule": "Myo5c–HMM (CaM): Myo5c–HMM heavy chain co-produced and co-purified with calmodulin (from UniProt Q9NQX4 1-1108; P0DP23 1-149) (complex)", "values": [{"measurement": "K (app actin) of the steady-state actin-activated ATPase (NADH-coupled assay, 30°C, 0.15 µM myosin), bare actin", "setting": "[1]", "result": 5.7, "unit": "µM"}, {"measurement": "K (app actin) of the steady-state actin-activated ATPase (NADH-coupled assay, 30°C, 0.15 µM myosin), actin–Tpm1.6 cofilaments", "setting": "[2]", "result": 2.31, "unit": "µM"}, {"measurement": "K (app actin) of the steady-state actin-activated ATPase (NADH-coupled assay, 30°C, 0.15 µM myosin), actin–Tpm3.1 cofilaments", "setting": "[3]", "result": 5.54, "unit": "µM"}, {"measurement": "K (app actin) of the steady-state actin-activated ATPase (NADH-coupled assay, 30°C, 0.15 µM myosin), actin–Tpm1.8 cofilaments", "setting": "[4]", "result": 3.24, "unit": "µM"}]}, {"molecule": "calmodulin (CaM) (from UniProt P0DP23 1-149) (natural protein)", "values": [{"measurement": "stoichiometry N (CaM per heavy chain)", "setting": "[5]", "result": 6}, {"measurement": "stoichiometry N (light chain:heavy chain)", "setting": "[6]", "result": 2}]}, {"molecule": "B1", "values": [{"measurement": "stoichiometry N", "setting": "[7]", "result": "~1 light chain:heavy chain"}]}, {"molecule": "B2", "values": [{"measurement": "stoichiometry N", "setting": "[7]", "result": "~3 light chain:heavy chain"}]}]}
